Data from article PMC4186791.

Target: UbxIVa Pro4 (Drosophila melanogaster)
Assay: two-hybrid; LexA-Ubx variant (pLexA) and B42-partner (pB42) co-transformed into S. cerevisiae EGY48 carrying p8op-LacZ; blue/white colonies on X-gal and liquid β-galactosidase (ONPG) assay after galactose induction at 30°C, reported in Miller units

percent of binding lost relative to UbxIb Pro4 [%] | Binder
85 | Cap-binding protein 1 (natural protein) MSRRRAHDTEDEGYDHRRNKRRRVSENQEIEDRLESLILRVGERSTSSVESNLEGLVSVLEADLGTFRLKILRILSDCAVRMPEKCTVYTTLVGLLNAKNYKFGGEFVDHMVKTFKESLKMCRWDAARYSLRFLADLVNCHVISATSLLQLLDTMIDVSNEDTVPQVRRDWFVFAVLSTLPWVGRDLYEKKESALESLLLRIEVYLNKRSKKHHNALRVWSSDAPHPQEEYLDCLWAQIRKLRQDNWAEKHIPRPYLVFDSILCEALQHNLPTIVPPPHHDNFEYPMPWVVYRMFDYTDCPDGPNLPGAHSIERFLIEEHLHHIIETYHHERKDCAAQLLSFPYKHKIPLEYCIVEVVFAELFHMPTPRYLDICYGSILIELCKLQPATLPQVLAQATEILFMRIDSMNTSCFDRFVNWFSYHLSNFKFTWSWDEWDSCLLLDGEHPRPKFIQEVLQKCLRLSYHQRITEMMPTTYAKLIPLTPVPNYKYANEEAANLPGTTVAHQLVVAIRQKCTPEEVVNILKDIPNSGYSGEEMSDGSFNALKIDVFVQTLLNLGSKSFSHSFAAISKFHSVFRALAETEEAQICILHNIFELWSSHQQMMVVLIDKLLKLQIVDCSAVATWIFSKEMTGEFTKLYLWEILHLTIKKMNKHVIKLNTELSEAKEKLAKADSSSSDSEDDSSHKRKKPITHADKPSEEVVERMEEKLEAANVNQKRLFLIVFQRFIMILSEHLLRSDTDGRDPDTDWYRWTIGRLQQVFLMHHEQVQKYSSTLETLLFTSDLDTHILEVFQQFVALRA
60 | Armadillo (natural protein) MSYMPAQNRTMSHNNQYNPPDLPPMVSAKEQTLMWQQNSYLGDSGIHSGAVTQVPSLSGKEDEEMEGDPLMFDLDTGFPQNFTQDQVDDMNQQLSQTRSQRVRAAMFPETLEEGIEIPSTQFDPQQPTAVQRLSEPSQMLKHAVVNLINYQDDAELATRAIPELIKLLNDEDQVVVSQAAMMVHQLSKKEASRHAIMNSPQMVAALVRAISNSNDLESTKAAVGTLHNLSHHRQGLLAIFKSGGIPALVKLLSSPVESVLFYAITTLHNLLLHQDGSKMAVRLAGGLQKMVTLLQRNNVKFLAIVTDCLQILAYGNQESKLIILASGGPNELVRIMRSYDYEKLLWTTSRVLKVLSVCSSNKPAIVDAGGMQALAMHLGNMSPRLVQNCLWTLRNLSDAATKVEGLEALLQSLVQVLGSTDVNVVTCAAGILSNLTCNNQRNKATVCQVGGVDALVRTIINAGDREEITEPAVCALRHLTSRHVDSELAQNAVRLNYGLSVIVKLLHPPSRWPLIKAVIGLIRNLALCPANHAPLREHGAIHHLVRLLMRAFQDTERQRSSIATTGSQQPSAYADGVRMEEIVEGTVGALHILARESHNRALIRQQSVIPIFVRLLFNEIENIQRVAAGVLCELAADKEGAEIIEQEGATGPLTDLLHSRNEGVATYAAAVLFRMSEDKPQDYKKRLSIELTNSLLREDNNIWANADLGMGPDLQDMLGPEEAYEGLYGQGPPSVHSSHGGRAFHQQGYDTLPIDSMQGLEISSPVGGGGAGGAPGNGGAVGGASGGGGNIGAIPPSGAPTSPYSMDMDVGEIDAGALNFDLDAMPTPPNDNNNLAAWYDTDC
